Assays:
syndecan-1 ectodomain = target: T1, syndecan-1 ectodomain (Mus musculus, UniProt P18828); test: Binding of radioactive syndecan-1 ectodomain to neuropeptides immobilized on nitrocellulose membrane (autoradiography); details: peptides immobilized on nitrocellulose, UV cross-linked
T1 sequence (P18828 23-255 limits assumed): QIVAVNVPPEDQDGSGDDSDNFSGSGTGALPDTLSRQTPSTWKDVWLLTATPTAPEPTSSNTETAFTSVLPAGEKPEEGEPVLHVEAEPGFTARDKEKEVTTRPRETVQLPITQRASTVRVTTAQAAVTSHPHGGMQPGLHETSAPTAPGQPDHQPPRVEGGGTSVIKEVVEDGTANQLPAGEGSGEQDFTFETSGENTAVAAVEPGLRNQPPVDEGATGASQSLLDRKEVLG
Experimental: Binding of syndecan-1 ectodomain to neuropeptides involved in body weight regulation was tested. Varying concentrations of the peptides were immobilized on a nitrocellulose membrane (for example, 1000 nmol) and fixed by UV cross-linking. The membrane was incubated with radioactive syndecan-1 ectodomain to allow binding and then washed and analyzed by autoradiography.

Mc3r = details: recombinant protein; cited from earlier work
Mc4r = details: recombinant protein; cited from earlier work
melanocortin-4 receptor = test: MC4-R adenylyl cyclase assay (conversion of ATP to cAMP) in membranes from 293 cells transfected with the melanocortin-4 receptor, with ndp-MSH; type: biochemical; details: for potentiation of MC4-R inhibition by AGRP (formation of cAMP from ATP): membranes preincubated with substance plus AGRP, FIGS. 1a and 1b
Experimental: Based on the interaction of AGRP and syndecan-1, the putative interaction between agouti/AGRP and syndecaniheparan sulfate in a functional assay was tested. Membranes from 293 cells transfected with the melanocortin-4 receptor were preincubated with buffer or as indicated with AGRP, heparan sulfate, syndecan-1 ectodomain, heparan sulfate plus AGRP, and syndecan-1 ectodomain plus AGRP. Samples were then mixed with or without the indicated concentration of ndp-{character pullout}MSH and conversion of ATP to cAMP measured in the assay.

## NC(=O)CC[C@@H]1NC(=O)[C@H](Cc2ccccc2)NC(=O)[C@H](Cc2ccc(O)cc2)NC(=O)[C@@H](N)CSSC[C@@H](C(=O)N2CCC[C@H]2C(=O)N[C@@H](CCCN=C(N)N)C(=O)NCC(N)=O)NC(=O)[C@H](CC(N)=O)NC1=O [vasopressin, reference compound]
syndecan-1 ectodomain
  interaction with syndecan-1 (binding of radioactive syndecan-1 ectodomain to immobilized peptide): interact with syndecan-1

## AGRP: Agouti-related protein, 132 aa hypothalamic analog of agouti; inhibitor of MC3-R and MC4-R (SSRRCVRLHESCLGQQVPCCDPCATCYCRFFNAFCYCRKLGTAMNPCSRT; UniProt O00253 83-132, looked up)
syndecan-1 ectodomain
  interaction with syndecan-1 (binding of radioactive syndecan-1 ectodomain to immobilized peptide): interact with syndecan-1
Mc3r
  antagonism of Mc3r: potent, selective antagonist
Mc4r
  antagonism of Mc4r: potent, selective antagonist

## FGF-2: fibroblast growth factor-2, heparin-binding growth factor
syndecan-1 ectodomain
  interaction with syndecan-1 (binding of radioactive syndecan-1 ectodomain to immobilized peptide): interact with syndecan-1

## heparan sulfate [reference compound]
melanocortin-4 receptor; 1 μg/ml heparan sulfate
  potency of AGRP at inhibiting MC4-R activation in presence of the substance: 10 nM AGRP is as potent as 100 nM AGRP
melanocortin-4 receptor
  potentiation of MC4-R inhibition by AGRP (formation of cAMP from ATP): potentiates melanocortin-4R (MC4-R) inhibition by AGRP

B1: syndecan-1 ectodomain: soluble extracellular domain of syndecan-1, a transmembrane heparan sulfate proteoglycan (protein, UniProt P18827 23-254, looked up)
extracellular domain: QIVATNLPPEDQDGSGDDSDNFSGSGAGALQDITLSQQTPSTWKDTQLLTAIPTSPEPTGLEATAASTSTLPAGEGPKEGEAVVLPEVEPGLTAREQEATPRPRETTQLPTTHLASTTTATTAQEPATSHPHRDMQPGHHETSTPAGPSQADLHTPHTEDGGPSATERAAEDGASSQLPAAEGSGEQDFTFETSGENTAVVAVEPDRRNQSPVDQGATGASQGLLDRKEVLG
modifications: extracellular domain
notes: soluble extracellular domain of syndecan-1, a transmembrane heparan sulfate proteoglycan
melanocortin-4 receptor; 1 ng/ml syndecan-1 ectodomain
  potency of AGRP at inhibiting MC4-R activation in presence of the substance: 10 nM AGRP is as potent as 100 nM AGRP
melanocortin-4 receptor; biochemical assay, agouti instead of AGRP
  potentiation of the action of agouti on the MC4-R: potentiates the action of agouti on the MC4-R
melanocortin-4 receptor; low versus higher concentrations of syndecan-1 ectodomain
  concentration dependence of potentiation of AGRP's action: potentiation is less pronounced at higher concentrations
melanocortin-4 receptor
  potentiation of MC4-R inhibition by AGRP (formation of cAMP from ATP): potentiates melanocortin-4R (MC4-R) inhibition by AGRP

B2: agouti: 131 aa paracrine signaling molecule; switches hair follicle melanocytes from black to yellow pigment (protein, UniProt Q03288 23-131, looked up)
Agouti-signaling protein: HLALEETLGDDRSLRSNSSMNSLDFSSVSIVALNKKSKKISRKEAEKRKRSSKKKASMKKVARPPPPSPCVATRDSCKPPAPACCDPCASCQCRFFGSACTCRVLNPNC
syndecan-1 ectodomain
  interaction with syndecan-1 (binding of radioactive syndecan-1 ectodomain to immobilized peptide): interact with syndecan-1

From patent US6284729A, “Methods and reagents for regulating obesity” (Children's Medical Center Corporation, priority 1998, dated 2001)
